B1: CCL23: human chemokine, Biolegend 587002 (protein, UniProt P55773 22-120, looked up)
C-C motif chemokine 23: RVTKDAETEFMMSKLPLENPVLLDRFHATSADCCISYTPRSIPCSLLESYFETNSECSKPGVIFLTKKGRRFCANPSDKQVQVCMRMLKLDTRIKTRKN
B2: CCL8: human chemokine, Peprotech 300-15 (protein, UniProt P80075 24-99, looked up)
C-C motif chemokine 8: QPDSVSIPITCCFNVINRKIPIQRLESYTRITNIQCPKEAVIFKTKRGKEVCADPKERWVRDSMKHLDQIFQNLKP
B3: CCL14: human chemokine, Peprotech 300-38B (protein, UniProt Q16627 20-93, looked up)
C-C motif chemokine 14: TKTESSSRGPYHPSECCFTYTTYKIPRQRIMDYYETNSQCSKPGIVFITKRGHSVCTNPSDKWVQDYIKDMKEN
B4: CCL21: human chemokine, Peprotech 300-35A (protein)
chain: SDGGAQDCCLKYSQRKIPAKVVRSYRKQEPSLGCSIPAILFLPRKRSQAELCADPKELWVQQLMQHLDKTPSPQKPAQGCRKDRGASKTGKKGKGSKGCKRTERSQTPKGP

How the values were obtained:
THP1 cells = test: Chemokine dose-response, THP1 cell migration; type: cell-based, human; conditions: mean of biological replicates (2-7); for Mean pEC80: 3-parameter log-logistic fit, maximum fixed at 100%
Method: Cell lines were confirmed mycoplasma free by monthly testing using a MycoAlert^TM kit (LT07-118, Lonza) following the manufacturer’s instructions. THP1 cells: THP1 cells (ECACC 88081201, a human monocyte leukemia cell line[51]) were obtained from ECACC and were cultured in T175 flasks at 0.3-1 × 10^6 cells/mL in Roswell Park Memorial Institute (RPMI) 1640 medium (R0883, Sigma) with 10% FBS (F9665, Sigma) and 5mM L-glutamine (G7513, Sigma), 37 °C, 5% CO2. J:CXCR1 cells: The J:CXCR1 cell line was cultured in the same manner as THP1 cells at 0.15-1 × 10^6 cells per mL[37]. Activated T-cells: T-cells were isolated, activated and expanded as follows. Briefly, density gradient centrifugation using Lymphoprep^TM density gradient medium (07801, […] Technologies) and a SepMate^TM isolation tube (85450, […] Technologies) was used to isolate peripheral blood mononuclear cells from human leukocyte cones. Two rounds of purification using a human CD8 + T-cell isolation kit (480011, BioLegend) were used to isolate CD8 + T-cells from peripheral blood mononuclear cells. Activation of CD8 + T-cells was performed in ImmunoCult^TM-XF T-cell expansion medium (10982, […] Technologies) with an anti-CD3/anti-CD28 T-cell activator at 25 μl/ml (10991, […] Technologies), supplemented with 10 ng/ml recombinant human IL-2 (200-02, PeproTech) with 1% penicillin/streptomycin. T-cells were passaged every 2–3 days in TexMACS medium (130-097-196, Miltenyi Biotec), supplemented with 10 ng/ml human IL-2 (200-05-250, Peprotech) and incubated at 37 °C in 5% CO2. CD8 + T-cells were frozen at day 10-13 after initial activation, at 20×10^6 cell/ml in TexMACS medium supplemented with 10% DMSO (D2650, Sigma) in liquid nitrogen. Activated CD8^+ T-cells were recovered in TexMACs medium at 0.3 × 10^6 cell/ml and incubated at 37 °C in 5% CO2, 24 h prior to use. For buffy coat experiments a mixture of primary human monocytes, granulocytes and lymphocytes was isolated from human buffy coat. Briefly, RBCs were sedimented in HetaSep (07806, […] Technologies) with 1 mL of HetaSep per 5 mL of blood for 15 min at 37 °C. The buffy coat layer was collected from the top and washed in 50 ml MACS buffer (PBS (P4417, Sigma), 0.5% BSA (A7030, Sigma), 0.075% EDTA (E5134, Sigma), pH 7.2), by centrifugation at 2000 g for 10 min at room temperature. The pellet was resuspended in 10 mL of 1x RBC lysis solution (130-094-183, Miltenyi Biotec) and lysed for 10 min at room temperature. The cells were then washed in MACS buffer twice as above. The final pellet was resuspended in 1 mL of MACS buffer per 5 mL of initial blood volume and counted using cell size FSC-H/SSC-H parameters with gate settings previously defined by immunostaining (see below). The leukocytes were then resuspended in assay buffer for cell migration and used within 30 min of isolation.
Cell counts were determined using an ATTUNE NxT Flow Cytometer with Cytkick autosampler (ThermoFisher), based on cell size parameters FSC-H/SSC-H, with previously defined gate settings. FSC-H/SSC-H gate settings for primary white blood cells from buffy coats were determined using flow cytometry to establish the granulocyte, monocyte and lymphocyte populations (Supplementary Fig. 13). Briefly, cells were labelled with anti-CD3 (Miltenyi Biotec, 130-113-135) to identify the T cell population, anti-CD14 (Miltenyi Biotec, 130-110-578) to identify the monocyte population, and with anti-CD16 (Miltenyi Biotec, 130-113-951) to identify the granulocyte population. Negative control cells were labelled with anti-human IgG1 (Miltenyi Biotec, 130-113-434). All antibodies were allophycocyanin (APC) conjugated. 100,000 white blood cells were added to Eppendorf tubes and centrifuged at 300 g for 3 min. The supernatant was discarded, and the cells resuspended in 98 µL of MACS buffer (1× PBS, 2 mM EDTA and 0.5% BSA, sterile filtered). 2 µl of antibody was added to the cells. […]

activated T-cells (ATC) = test: Chemokine dose-response, activated T-cell (ATC) migration; type: cell-based, human; conditions: mean of biological replicates (3-6)
Method: Cell lines were confirmed mycoplasma free by monthly testing using a MycoAlert^TM kit (LT07-118, Lonza) following the manufacturer’s instructions. THP1 cells: THP1 cells (ECACC 88081201, a human monocyte leukemia cell line[51]) were obtained from ECACC and were cultured in T175 flasks at 0.3-1 × 10^6 cells/mL in Roswell Park Memorial Institute (RPMI) 1640 medium (R0883, Sigma) with 10% FBS (F9665, Sigma) and 5mM L-glutamine (G7513, Sigma), 37 °C, 5% CO2. J:CXCR1 cells: The J:CXCR1 cell line was cultured in the same manner as THP1 cells at 0.15-1 × 10^6 cells per mL[37]. Activated T-cells: T-cells were isolated, activated and expanded as follows. […] The final pellet was resuspended in 1 mL of MACS buffer per 5 mL of initial blood volume and counted using cell size FSC-H/SSC-H parameters with gate settings previously defined by immunostaining (see below). […]
Cell counts were determined using an ATTUNE NxT Flow Cytometer with Cytkick autosampler (ThermoFisher), based on cell size parameters FSC-H/SSC-H, with previously defined gate settings. FSC-H/SSC-H gate settings for primary white blood cells from buffy coats were determined using flow cytometry to establish the granulocyte, monocyte and lymphocyte populations (Supplementary Fig. 13). […]

Molecule | Mean pEC80 (THP1 cells) | Mean pEC50 (THP1 cells) | Mean pEC50 (activated T-cells (ATC)) | Mean pEC80 (activated T-cells (ATC))
B1 | 8.66 [M] | 8.97 [M] | – | –
B2 | 7.84 [M] | 8.19 [M] | – | –
B3 | 9.23 [M] | 9.61 [M] | – | –
B4 | – | – | 7.98 [M] | 7.42 [M]

Source: publication PMC11969024, “Development of chemokine network inhibitors using combinatorial saturation mutagenesis” (Communications Biology, 2025)
